The test system of one data set is biotinyl-Phe-oxazolone. The experiment in a line: self-aminoacylation, catalytic enhancement (BFO) (fold over background); higher = more active; k-Seq, kA / k0A0; sequences stand for … in GGGAAUGGAUCCACAUCUACGAAUUC…UUCACUGCAGACUUGACGAAGCUG
A digest of the protocol: (§1)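 Working in 50 μL HEPES/NaCl/KCl/MgCl2/CaCl2 buffer with 5% acetonitrile at pH 6.9–7.0, mutagenized RNA pools (0.43 μM; 21-nt variable region) were reacted with 2–1250 μM of each biotinyl-aminoacyl-oxazolone for 90 minutes at room temperature. Streptavidin capture followed, with quantification by triplicate qPCR and Illumina sequencing. Catalytic enhancement is reported as median kA over the uncatalyzed rate, the low-activity peak of a bimodal Gaussian fit to the data.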

The subject of the next data set is biotinyl-Leu-oxazolone. The data set can be described thus: self-aminoacylation, catalytic enhancement (BLO) (fold over background); higher = more active; k-Seq, kA / k0A0; sequences stand for … in GGGAAUGGAUCCACAUCUACGAAUUC…UUCACUGCAGACUUGACGAAGCUG
A digest of the protocol:
as §1

The test system of a further data set is biotinyl-Met-oxazolone. The data set can be described thus: self-aminoacylation, catalytic enhancement (BMO) (fold over background); higher = more active; k-Seq, kA / k0A0; sequences stand for … in GGGAAUGGAUCCACAUCUACGAAUUC…UUCACUGCAGACUUGACGAAGCUG
In short, it runs like this: as §1

A further data set concerns biotinyl-Trp-oxazolone. The experiment in a line: self-aminoacylation, catalytic enhancement (BWO) (fold over background); higher = more active; k-Seq, kA / k0A0; sequences stand for … in GGGAAUGGAUCCACAUCUACGAAUUC…UUCACUGCAGACUUGACGAAGCUG
In short, it runs like this: as §1

Fewer inactive variants are shown than the library holds.

For “AUUCACCUAAGUCAUCGGGUU [Fam2.2 aminoacylation ribozyme variant]”, the self-aminoacylation with biotinyl-Phe-oxazolone was found to be 10.7; with biotinyl-Leu-oxazolone, 2.55; in the data set on biotinyl-Met-oxazolone it was 2.63.

“AAGUUCGCUAAUAGUCGCAAC [Fam3.1 aminoacylation ribozyme variant]”: the self-aminoacylation with biotinyl-Trp-oxazolone was found to be 2.33; in the data set on biotinyl-Phe-oxazolone it was 2.12; in the data set on biotinyl-Met-oxazolone, 2.32.

With “ACACGCUUCAAGCAAUCGGUC [Fam1B.1 aminoacylation ribozyme variant]”, the self-aminoacylation in the data set with biotinyl-Trp-oxazolone came to 38.8; in the data set with biotinyl-Phe-oxazolone, 63.7; in the data set with biotinyl-Leu-oxazolone, 2.68.

Take “AUUCACCUAGGUCAGCGGUUG [Fam2.2 aminoacylation ribozyme variant]”: the values for the self-aminoacylation in the data set with biotinyl-Phe-oxazolone and in the data set on biotinyl-Met-oxazolone were 6.39 and 2.22, respectively.

Take “AAGCUUGCUAUUAGUCGCAAG [Fam3.1 aminoacylation ribozyme variant]”: the self-aminoacylation in the data set on biotinyl-Phe-oxazolone worked out at 2.62; in the data set on biotinyl-Leu-oxazolone it was 2.48; in the data set on biotinyl-Met-oxazolone, 2.23.

Consider “AUUACUCUGGUCAUCGUGUGA [Fam2.1 aminoacylation ribozyme variant]”, for which the self-aminoacylation stood at 3.34 in the data set on biotinyl-Trp-oxazolone, 12.5 with biotinyl-Phe-oxazolone, 2.81 with biotinyl-Leu-oxazolone and 2.45 in the data set with biotinyl-Met-oxazolone.

As to “AACUUUGCUAAUAGUAGCAAG [Fam3.1 aminoacylation ribozyme variant]”, the self-aminoacylation with biotinyl-Trp-oxazolone is 2.42; in the data set on biotinyl-Phe-oxazolone, 2.06; in the data set with biotinyl-Met-oxazolone it was 2.2.

Consider “CGACUUCAAUCAAUCGGUCUG [Fam1A.1 aminoacylation ribozyme variant]”, for which the self-aminoacylation was 24.3 in the data set with biotinyl-Trp-oxazolone, 42.2 in the data set on biotinyl-Phe-oxazolone and 2.21 with biotinyl-Leu-oxazolone.

In the case of “AUGACCCUGGUCAUCGAGGGA [Fam2.1 aminoacylation ribozyme variant]”, the self-aminoacylation is 2.82 in the data set on biotinyl-Phe-oxazolone, 3.03 in the data set on biotinyl-Leu-oxazolone and 3.65 in the data set on biotinyl-Met-oxazolone.

On to “CCCCACUUCAAGUAAUCGGUC [Fam1B.1 aminoacylation ribozyme variant]”, for which the self-aminoacylation in the data set on biotinyl-Trp-oxazolone was determined as 14.2; in the data set on biotinyl-Phe-oxazolone, 15.4; with biotinyl-Leu-oxazolone, 2.08.

With “ACUCACCUAGGUCAUCGGGUC [Fam2.2 aminoacylation ribozyme variant]”, the self-aminoacylation in the data set on biotinyl-Phe-oxazolone worked out at 7.01; in the data set with biotinyl-Met-oxazolone, 2.24.

Consider “GUUCACCUAGGUCAACGGGUG [Fam2.2 aminoacylation ribozyme variant]”, for which the self-aminoacylation was determined as 3.22 in the data set with biotinyl-Trp-oxazolone, 17.5 in the data set with biotinyl-Phe-oxazolone, 2.5 with biotinyl-Leu-oxazolone and 2.11 in the data set on biotinyl-Met-oxazolone.

For “CCACUUCAAACAAUCGGUCUC [Fam1A.1 aminoacylation ribozyme variant]”, the self-aminoacylation in the data set on biotinyl-Trp-oxazolone stood at 42.2; in the data set with biotinyl-Phe-oxazolone, 75.8; in the data set on biotinyl-Leu-oxazolone it was 2.13; in the data set on biotinyl-Met-oxazolone, 2.08.

As to “AAGUCUGCUAAUAGUCGUAAG [Fam3.1 aminoacylation ribozyme variant]”, the self-aminoacylation in the data set with biotinyl-Trp-oxazolone came out at 9.94; in the data set with biotinyl-Phe-oxazolone, 49.6; in the data set with biotinyl-Met-oxazolone, 2.5.

For “AUUCACCUAGCUCAUCGGGGG [Fam2.2 aminoacylation ribozyme variant]”, the self-aminoacylation in the data set with biotinyl-Met-oxazolone amounted to 2.42.

On to “AUACACCUAGGUCAACGGGUG [Fam2.2 aminoacylation ribozyme variant]”, for which the self-aminoacylation turned out to be 2.02 with biotinyl-Trp-oxazolone, 6.06 in the data set on biotinyl-Phe-oxazolone, 2.79 with biotinyl-Leu-oxazolone and 2.09 in the data set on biotinyl-Met-oxazolone.

For “AUUUCCCUGGUCAUCGUGUGA [Fam2.1 aminoacylation ribozyme variant]”, the self-aminoacylation in the data set on biotinyl-Trp-oxazolone is 4.8; with biotinyl-Phe-oxazolone it was 27.1; in the data set on biotinyl-Leu-oxazolone, 3.65; in the data set on biotinyl-Met-oxazolone it was 3.61.

“AUUACCCUGGUAAUCGUGUGA [Fam2.1 aminoacylation ribozyme variant]”: the self-aminoacylation stood at 4.1 in the data set with biotinyl-Trp-oxazolone, 22.2 in the data set on biotinyl-Phe-oxazolone, 3.58 with biotinyl-Leu-oxazolone and 3.48 in the data set with biotinyl-Met-oxazolone.

As to “AUUAACCUAGGUCAUCUGGUG [Fam2.2 aminoacylation ribozyme variant]”, the self-aminoacylation turned out to be 2.7 with biotinyl-Trp-oxazolone, 13.6 in the data set on biotinyl-Phe-oxazolone, 3.34 with biotinyl-Leu-oxazolone and 2.59 in the data set with biotinyl-Met-oxazolone.

As for “AUUCACCUAGAUCAGCGGGUG [Fam2.2 aminoacylation ribozyme variant]”, the self-aminoacylation stood at 2.88 in the data set on biotinyl-Trp-oxazolone, 11.7 with biotinyl-Phe-oxazolone, 3.1 with biotinyl-Leu-oxazolone and 2.39 in the data set on biotinyl-Met-oxazolone.

Consider “GAGUUUGCUAAUAGUCGCAGG [Fam3.1 aminoacylation ribozyme variant]”, for which the self-aminoacylation in the data set with biotinyl-Trp-oxazolone was 3.34; in the data set with biotinyl-Phe-oxazolone, 6.69; in the data set with biotinyl-Leu-oxazolone, 2.11.

Regarding “AUUCACAUAGGUCAUCGAGUG [Fam2.2 aminoacylation ribozyme variant]”, the self-aminoacylation with biotinyl-Trp-oxazolone was 2.2; in the data set on biotinyl-Phe-oxazolone it was 3.08; with biotinyl-Leu-oxazolone, 2.69.

As for “GUACUUCAAUCAAUCGGUCUG [Fam1A.1 aminoacylation ribozyme variant]”, the self-aminoacylation in the data set with biotinyl-Trp-oxazolone is 19.4; in the data set with biotinyl-Phe-oxazolone it was 21.9; in the data set on biotinyl-Leu-oxazolone, 2.06.

With “AUUCACCUAGGUCUUCAGGUG [Fam2.2 aminoacylation ribozyme variant]”, the self-aminoacylation was determined as 6.96 in the data set with biotinyl-Phe-oxazolone, 2.02 in the data set on biotinyl-Leu-oxazolone and 2.04 in the data set on biotinyl-Met-oxazolone.

Turning to “AUAACCCUGGUCAUCGAGUAA [Fam2.1 aminoacylation ribozyme variant]”, the self-aminoacylation in the data set on biotinyl-Trp-oxazolone was 2.47; in the data set with biotinyl-Phe-oxazolone, 7.47; with biotinyl-Leu-oxazolone, 3.46; in the data set on biotinyl-Met-oxazolone, 3.64.

For the sequence “AUUACCCUGGUCCUCGUGUGA [Fam2.1 aminoacylation ribozyme variant]”, the self-aminoacylation with biotinyl-Trp-oxazolone was 2.73; in the data set with biotinyl-Phe-oxazolone, 14; with biotinyl-Leu-oxazolone, 2.88; with biotinyl-Met-oxazolone it was 2.89.

Turning to “AUUACCCAGGCCAUCGAGUGA [Fam2.1 aminoacylation ribozyme variant]”, the self-aminoacylation in the data set with biotinyl-Phe-oxazolone came out at 11; in the data set with biotinyl-Leu-oxazolone, 2.69; with biotinyl-Met-oxazolone it was 2.52.

Take “AAGUUAGCUAAUAGUCGCGAG [Fam3.1 aminoacylation ribozyme variant]”: the results for the self-aminoacylation in the data set with biotinyl-Trp-oxazolone, with biotinyl-Phe-oxazolone and in the data set with biotinyl-Leu-oxazolone were 2.24, 2.29 and 2.09, respectively.

Turning to “AUUCACCUAGGUCAGCGUGUG [Fam2.2 aminoacylation ribozyme variant]”, the figures for the self-aminoacylation in the data set with biotinyl-Phe-oxazolone, in the data set on biotinyl-Leu-oxazolone and in the data set with biotinyl-Met-oxazolone were 11, 2.77 and 2.16, respectively.

“GUACUUCAAACAAUCGGUCGG [Fam1A.1 aminoacylation ribozyme variant]”: the self-aminoacylation is 15.8 in the data set with biotinyl-Trp-oxazolone, 37.8 with biotinyl-Phe-oxazolone and 2.3 in the data set with biotinyl-Leu-oxazolone.

For the sequence “AAGCUGGCUAAUAGUCGCAAG [Fam3.1 aminoacylation ribozyme variant]”, the self-aminoacylation in the data set on biotinyl-Trp-oxazolone stood at 2.08; in the data set with biotinyl-Phe-oxazolone, 3.61; in the data set with biotinyl-Leu-oxazolone, 2.68.

With “CGUCUUCAAACAAUCGGUCUG [Fam1A.1 aminoacylation ribozyme variant]”, the self-aminoacylation was 33.5 in the data set on biotinyl-Trp-oxazolone, 79 with biotinyl-Phe-oxazolone and 2.22 with biotinyl-Leu-oxazolone.

For the sequence “CCACUUCAAACAAUCGGUCGG [Fam1A.1 aminoacylation ribozyme variant]”, the values for the self-aminoacylation in the data set on biotinyl-Trp-oxazolone, in the data set with biotinyl-Phe-oxazolone and with biotinyl-Leu-oxazolone were 33.2, 99.5 and 2.54, respectively.

“CCGCACUUCAAGCAAUCGGUC [Fam1B.1 aminoacylation ribozyme variant]”: the self-aminoacylation in the data set with biotinyl-Trp-oxazolone came to 36.5; with biotinyl-Phe-oxazolone, 61.6; with biotinyl-Leu-oxazolone it was 2.01.

For the sequence “CAACGCUUCAAGCAAUCGGUC [Fam1B.1 aminoacylation ribozyme variant]”, the self-aminoacylation in the data set on biotinyl-Trp-oxazolone worked out at 33.7; in the data set with biotinyl-Phe-oxazolone, 58.6; in the data set with biotinyl-Leu-oxazolone, 2.08.

Take “CCAGACUUCAAACAAUCGGUC [Fam1B.1 aminoacylation ribozyme variant]”: the self-aminoacylation turned out to be 40.2 with biotinyl-Trp-oxazolone, 85.8 with biotinyl-Phe-oxazolone and 2.19 in the data set with biotinyl-Leu-oxazolone.

For the sequence “AGGGUUGCUAAUAGUCGCAAG [Fam3.1 aminoacylation ribozyme variant]”, the self-aminoacylation in the data set on biotinyl-Phe-oxazolone is 4.28; in the data set on biotinyl-Met-oxazolone it was 2.18.

(Values after the supplement of paper PMC9233669.)
